Measured values published in patent publication US20070134720A1, “Method of detecting effect of controlling synoviolin activity” (priority 2003, published 2007).

Assays:
[1] = biological target: T1, synoviolin activity of ubiquitinating P4HA1 (Homo sapiens, UniProt Q86TM6); assay: Inhibition of ubiquitination activity using ELISA; format: biochemical; conditions: anti-GST capture, anti-ubiquitin detection, OD 450 nm
T1 construct: comprises a MBP-fused synoviolin that lacks the transmembrane segment (TM) (synoviolin dTM); made in house; host or cells: Escherichia coli
Protocol: A 96-well ELISA plate was adsorbed with an anti-GST antibody at 4° C. overnight and then blocked with 5% BSA/PBS solution at room temperature until it was used. The plate was washed twice before use with 300 μL of PBS containing 0.3% BSA (PBSA).
A standard reaction mixture comprising 80 ng MBP-synoviolin-His, 40 ng GST-P4HA1, 15 ng E1, 200 ng His-E2, 5 mM MgCl2, 2 mMATP, 1 mM DTT, 0.1% BSA, 0.3% DMSO, and a test compound in 30 μL of 50 mM HEPES (pH 7.5) solution was prepared in a reaction tube. After a 30 minute reaction at room temperature, 70 μL of a solution containing 70 mM EDTA and 50 mM HEPES was added to terminate the reaction. This (30 μl) was added to a plate previously containing 70 μL PBSA and incubated at room temperature for 1 hour. After washing three times with 300 μL of PBSA, 100 μL of a mouse anti-ubiquitin antibody solution diluted 1:5000 in PBSA was added, and the mixture was incubated at room temperature for 1 hour. After three washes with 300 μL of PBSA, 100 μL of a peroxidase-labeled anti-mouse IgG solution diluted 1:10000 in PBSA was added, and the mixture was incubated at room temperature for 1 hour. […] When a sufficient coloration was observed, 1 M phosphoric acid was added to terminate the reaction, and the optical density at 450 nm was measured.

[2] = biological target: T1, synoviolin activity of ubiquitinating P4HA1; assay: Inhibition of ubiquitination activity using energy transfer of XL665-Eu(K) (HTRF method); format: biochemical; conditions: Eu(K)-labeled ubiquitin, GST-P4HA1 substrate, compared with binding inhibition
Protocol: A method of high-throughput screening (HTS) for compounds that inhibit the synoviolin activity of ubiquitinating P4HA1 was investigated. A system was designed in which ubiquitination by Eu(K)-labeled ubiquitin was conducted using P4HA1 expressed as a GST-fused protein as a substrate. When P4HA1 underwent Eu(K)-labeled ubiquitination, energy transfer occurred between an XL665-labeled anti-GST antibody and an Eu(K)-labeled ubiquitin, and fluorescence was detected.
A standard reaction mixture comprising 60 ng MBP-synoviolin-His, 15 ng GST-P4HA1, 15 ng E1 (Boston Biochem), 200 ng His-E2, 6.25 nM Eu(K)-labeled ubiquitin (CIS bio international), 5 mM MgCl2, 2 mM ATP, 1 mM DTT, 0.1% BSA, 0.3% DMSO, and a test compound in 15 μL of a 20 mM HEPES (pH 7.5) solution was prepared using a 384-well plate. After a 30 minute reaction at 37° C., 5 μL of 0.5 M EDTA was added to terminate the reaction. To this was added 5 μL of 20 mM HEPES solution containing an XL665-labeled […] antibody (0.025 μg) and 1 M K, and the mixture was left to stand overnight at room temperature, and the fluorescence was measured using RUBYstar™.

T1 sequence (Q86TM6 246-617 limits assumed): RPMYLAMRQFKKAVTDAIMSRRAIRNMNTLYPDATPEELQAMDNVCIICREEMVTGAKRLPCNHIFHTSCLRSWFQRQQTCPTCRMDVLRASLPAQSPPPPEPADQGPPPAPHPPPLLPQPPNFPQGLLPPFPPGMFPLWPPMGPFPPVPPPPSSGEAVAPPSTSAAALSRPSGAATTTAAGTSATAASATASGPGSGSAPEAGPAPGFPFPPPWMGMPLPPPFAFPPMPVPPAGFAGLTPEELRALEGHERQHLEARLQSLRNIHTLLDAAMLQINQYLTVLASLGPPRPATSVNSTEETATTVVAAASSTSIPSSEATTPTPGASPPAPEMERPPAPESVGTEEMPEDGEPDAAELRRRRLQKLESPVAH

IC50 of inhibition of the ubiquitination of P4HA1 [1]: 55 µg/mL
concentration inhibiting the ubiquitination of P4HA1, relative to that for inhibition of the binding [2]: 20 times lower
Sequence: DNVCIICREEMVTGAKRLDCN [SEQ ID NO: 5]
